Consider six molecules from US20200377595A1 (Chugai, published 2020).

To fix the notation:
B1: NNS6f56 (antibody)
chain 1: QVQLVESGGGLVQPGRSLRLSCAASGFTFSNAWMHWVRQAPGKGLEWVAQIKDKSNNYATYYAESVKGRFTISRDDSKNSIYLQMNSLKTEDTAVYYCRYVHYAAREATRWYYGVDAWGQGTTVTVSSASTKGPSVFPLAPSSKSTSGGTAALGCLVKDYFPEPVTVSWNSGALTSGVHTFPAVLQSSGLYSLSSVVTVPSSSLGTQTYICNVNHKPSNTKVDKKVEPKSCDKTHTCPPCPAPEAAGGPSVFLFPPKPKDTLMISRTPEVTCVVVDVSHEDPEVKFNWYVDGVEVHNAKTKPREEQYASTYRVVSVLTVLHQDWLNGKEYKCKVSNKALPAPIEKTISKAKGQPREPQVYTLPPSRCELTKNQVSLSCAVKGFYPSDIAVEWESNGQPENNYKTTPPVLDSDGSFFLVSKLTVDKSRWQQGNVFSCSVMHEALHNHYTQKSLSLSPDYKDDDDK
chain 2: EPKSSDKTHTCPPCPAPELLGGPSVFLFPPKPKDTLMISRTPEVTCVVVDVSHEDPEVKFNWYVDGVEVHNAKTKPREEQYNSTYRVVSVLTVLHQDWLNGKEYKCKVSNKALPAPIEKTISKAKGQPREPQVCTLPPSRDELTKNQVSLWCLVKGFYPSDIAVEWESNGQPENNYKTTPPVLDSDGSFFLYSKLTVDKSRWQQGNVFSCSVMHEALHNRYTQKSLSLSP
chain 3: DIVMTQSPLSLPVTPGEPASISCRSSQSLVHSNRNTYLHWYQQKPGQAPRLLIYKVSNRFSGVPDRFSGSGSGTDFTLKISRVEAEDVGVYYCGQGTQVPYTFGQGTKLEIKRTVAAPSVFIFPPSDEQLKSGTASVVCLLNNFYPREAKVQWKVDNALQSGNSQESVTEQDSKDSTYSLSSTLTLSKADYEKHKVYACEVTHQGLSSPVTKSFNRGEC
B2: NNS6f59 (antibody)
chain 1: QVQLVESGGGLVQPGRSLRLSCAASGFTFSNAWMHWVRQAPGKGLEWVAQIKDKSNNYATYYAESVKGRFTISRDDSKNSIYLQMNSLKTEDTAVYYCRYVHYAALLVQEGYYGVDAWGQGTTVTVSSASTKGPSVFPLAPSSKSTSGGTAALGCLVKDYFPEPVTVSWNSGALTSGVHTFPAVLQSSGLYSLSSVVTVPSSSLGTQTYICNVNHKPSNTKVDKKVEPKSCDKTHTCPPCPAPEAAGGPSVFLFPPKPKDTLMISRTPEVTCVVVDVSHEDPEVKFNWYVDGVEVHNAKTKPREEQYASTYRVVSVLTVLHQDWLNGKEYKCKVSNKALPAPIEKTISKAKGQPREPQVYTLPPSRCELTKNQVSLSCAVKGFYPSDIAVEWESNGQPENNYKTTPPVLDSDGSFFLVSKLTVDKSRWQQGNVFSCSVMHEALHNHYTQKSLSLSPDYKDDDDK
chain 2: EPKSSDKTHTCPPCPAPELLGGPSVFLFPPKPKDTLMISRTPEVTCVVVDVSHEDPEVKFNWYVDGVEVHNAKTKPREEQYNSTYRVVSVLTVLHQDWLNGKEYKCKVSNKALPAPIEKTISKAKGQPREPQVCTLPPSRDELTKNQVSLWCLVKGFYPSDIAVEWESNGQPENNYKTTPPVLDSDGSFFLYSKLTVDKSRWQQGNVFSCSVMHEALHNRYTQKSLSLSP
chain 3: DIVMTQSPLSLPVTPGEPASISCRSSQSLVHSNRNTYLHWYQQKPGQAPRLLIYKVSNRFSGVPDRFSGSGSGTDFTLKISRVEAEDVGVYYCGQGTQVPYTFGQGTKLEIKRTVAAPSVFIFPPSDEQLKSGTASVVCLLNNFYPREAKVQWKVDNALQSGNSQESVTEQDSKDSTYSLSSTLTLSKADYEKHKVYACEVTHQGLSSPVTKSFNRGEC
B3: NNS6f64 (antibody)
chain 1: QVQLVESGGGLVQPGRSLRLSCAASGFTFSNAWMHWVRQAPGKGLEWVAQIKDKSNNYATYYAESVKGRFTISRDDSKNSIYLQMNSLKTEDTAVYYCRYVHYAALVSLTVYYGVDAWGQGTTVTVSSASTKGPSVFPLAPSSKSTSGGTAALGCLVKDYFPEPVTVSWNSGALTSGVHTFPAVLQSSGLYSLSSVVTVPSSSLGTQTYICNVNHKPSNTKVDKKVEPKSCDKTHTCPPCPAPEAAGGPSVFLFPPKPKDTLMISRTPEVTCVVVDVSHEDPEVKFNWYVDGVEVHNAKTKPREEQYASTYRVVSVLTVLHQDWLNGKEYKCKVSNKALPAPIEKTISKAKGQPREPQVYTLPPSRCELTKNQVSLSCAVKGFYPSDIAVEWESNGQPENNYKTTPPVLDSDGSFFLVSKLTVDKSRWQQGNVFSCSVMHEALHNHYTQKSLSLSPDYKDDDDK
chain 2: EPKSSDKTHTCPPCPAPELLGGPSVFLFPPKPKDTLMISRTPEVTCVVVDVSHEDPEVKFNWYVDGVEVHNAKTKPREEQYNSTYRVVSVLTVLHQDWLNGKEYKCKVSNKALPAPIEKTISKAKGQPREPQVCTLPPSRDELTKNQVSLWCLVKGFYPSDIAVEWESNGQPENNYKTTPPVLDSDGSFFLYSKLTVDKSRWQQGNVFSCSVMHEALHNRYTQKSLSLSP
chain 3: DIVMTQSPLSLPVTPGEPASISCRSSQSLVHSNRNTYLHWYQQKPGQAPRLLIYKVSNRFSGVPDRFSGSGSGTDFTLKISRVEAEDVGVYYCGQGTQVPYTFGQGTKLEIKRTVAAPSVFIFPPSDEQLKSGTASVVCLLNNFYPREAKVQWKVDNALQSGNSQESVTEQDSKDSTYSLSSTLTLSKADYEKHKVYACEVTHQGLSSPVTKSFNRGEC
B4: NNS6f63 (antibody)
chain 1: QVQLVESGGGLVQPGRSLRLSCAASGFTFSNAWMHWVRQAPGKGLEWVAQIKDKSNNYATYYAESVKGRFTISRDDSKNSIYLQMNSLKTEDTAVYYCRYVHYAAGGGGWVYYGVDAWGQGTTVTVSSASTKGPSVFPLAPSSKSTSGGTAALGCLVKDYFPEPVTVSWNSGALTSGVHTFPAVLQSSGLYSLSSVVTVPSSSLGTQTYICNVNHKPSNTKVDKKVEPKSCDKTHTCPPCPAPEAAGGPSVFLFPPKPKDTLMISRTPEVTCVVVDVSHEDPEVKFNWYVDGVEVHNAKTKPREEQYASTYRVVSVLTVLHQDWLNGKEYKCKVSNKALPAPIEKTISKAKGQPREPQVYTLPPSRCELTKNQVSLSCAVKGFYPSDIAVEWESNGQPENNYKTTPPVLDSDGSFFLVSKLTVDKSRWQQGNVFSCSVMHEALHNHYTQKSLSLSPDYKDDDDK
chain 2: EPKSSDKTHTCPPCPAPELLGGPSVFLFPPKPKDTLMISRTPEVTCVVVDVSHEDPEVKFNWYVDGVEVHNAKTKPREEQYNSTYRVVSVLTVLHQDWLNGKEYKCKVSNKALPAPIEKTISKAKGQPREPQVCTLPPSRDELTKNQVSLWCLVKGFYPSDIAVEWESNGQPENNYKTTPPVLDSDGSFFLYSKLTVDKSRWQQGNVFSCSVMHEALHNRYTQKSLSLSP
chain 3: DIVMTQSPLSLPVTPGEPASISCRSSQSLVHSNRNTYLHWYQQKPGQAPRLLIYKVSNRFSGVPDRFSGSGSGTDFTLKISRVEAEDVGVYYCGQGTQVPYTFGQGTKLEIKRTVAAPSVFIFPPSDEQLKSGTASVVCLLNNFYPREAKVQWKVDNALQSGNSQESVTEQDSKDSTYSLSSTLTLSKADYEKHKVYACEVTHQGLSSPVTKSFNRGEC
B5: NNS6f62 (antibody)
chain 1: QVQLVESGGGLVQPGRSLRLSCAASGFTFSNAWMHWVRQAPGKGLEWVAQIKDKSNNYATYYAESVKGRFTISRDDSKNSIYLQMNSLKTEDTAVYYCRYVHYAANGGTRHYYGVDAWGQGTTVTVSSASTKGPSVFPLAPSSKSTSGGTAALGCLVKDYFPEPVTVSWNSGALTSGVHTFPAVLQSSGLYSLSSVVTVPSSSLGTQTYICNVNHKPSNTKVDKKVEPKSCDKTHTCPPCPAPEAAGGPSVFLFPPKPKDTLMISRTPEVTCVVVDVSHEDPEVKFNWYVDGVEVHNAKTKPREEQYASTYRVVSVLTVLHQDWLNGKEYKCKVSNKALPAPIEKTISKAKGQPREPQVYTLPPSRCELTKNQVSLSCAVKGFYPSDIAVEWESNGQPENNYKTTPPVLDSDGSFFLVSKLTVDKSRWQQGNVFSCSVMHEALHNHYTQKSLSLSPDYKDDDDK
chain 2: EPKSSDKTHTCPPCPAPELLGGPSVFLFPPKPKDTLMISRTPEVTCVVVDVSHEDPEVKFNWYVDGVEVHNAKTKPREEQYNSTYRVVSVLTVLHQDWLNGKEYKCKVSNKALPAPIEKTISKAKGQPREPQVCTLPPSRDELTKNQVSLWCLVKGFYPSDIAVEWESNGQPENNYKTTPPVLDSDGSFFLYSKLTVDKSRWQQGNVFSCSVMHEALHNRYTQKSLSLSP
chain 3: DIVMTQSPLSLPVTPGEPASISCRSSQSLVHSNRNTYLHWYQQKPGQAPRLLIYKVSNRFSGVPDRFSGSGSGTDFTLKISRVEAEDVGVYYCGQGTQVPYTFGQGTKLEIKRTVAAPSVFIFPPSDEQLKSGTASVVCLLNNFYPREAKVQWKVDNALQSGNSQESVTEQDSKDSTYSLSSTLTLSKADYEKHKVYACEVTHQGLSSPVTKSFNRGEC
B6: NNS6f58 (antibody)
chain 1: QVQLVESGGGLVQPGRSLRLSCAASGFTFSNAWMHWVRQAPGKGLEWVAQIKDKSNNYATYYAESVKGRFTISRDDSKNSIYLQMNSLKTEDTAVYYCRYVHYAASWQVSRYYGVDAWGQGTTVTVSSASTKGPSVFPLAPSSKSTSGGTAALGCLVKDYFPEPVTVSWNSGALTSGVHTFPAVLQSSGLYSLSSVVTVPSSSLGTQTYICNVNHKPSNTKVDKKVEPKSCDKTHTCPPCPAPEAAGGPSVFLFPPKPKDTLMISRTPEVTCVVVDVSHEDPEVKFNWYVDGVEVHNAKTKPREEQYASTYRVVSVLTVLHQDWLNGKEYKCKVSNKALPAPIEKTISKAKGQPREPQVYTLPPSRCELTKNQVSLSCAVKGFYPSDIAVEWESNGQPENNYKTTPPVLDSDGSFFLVSKLTVDKSRWQQGNVFSCSVMHEALHNHYTQKSLSLSPDYKDDDDK
chain 2: EPKSSDKTHTCPPCPAPELLGGPSVFLFPPKPKDTLMISRTPEVTCVVVDVSHEDPEVKFNWYVDGVEVHNAKTKPREEQYNSTYRVVSVLTVLHQDWLNGKEYKCKVSNKALPAPIEKTISKAKGQPREPQVCTLPPSRDELTKNQVSLWCLVKGFYPSDIAVEWESNGQPENNYKTTPPVLDSDGSFFLYSKLTVDKSRWQQGNVFSCSVMHEALHNRYTQKSLSLSP
chain 3: DIVMTQSPLSLPVTPGEPASISCRSSQSLVHSNRNTYLHWYQQKPGQAPRLLIYKVSNRFSGVPDRFSGSGSGTDFTLKISRVEAEDVGVYYCGQGTQVPYTFGQGTKLEIKRTVAAPSVFIFPPSDEQLKSGTASVVCLLNNFYPREAKVQWKVDNALQSGNSQESVTEQDSKDSTYSLSSTLTLSKADYEKHKVYACEVTHQGLSSPVTKSFNRGEC

The assay addresses biotinylated CD3 epsilon epitope peptide. Description: SPR, one-arm Ab.
The Kd is the constant that tells how readily two partners part at equilibrium. A high value points to lower affinity. As to B1, binding was characterised by a dissociation constant (Kd) of 21 nM. On to B2, for which binding was put at a Kd of 200 nM.

B3: binding was characterised by a dissociation constant (Kd) of 78 nM. B4 registered a Kd of 69 nM. On to B5, for which the Kd stood at 61 nM.

B6 displayed a Kd of 44 nM. The Kd values of the last two molecules are within 1.5-fold of each other.
